Test results reported in FireProtDB (doi:10.1021/bi012084+).
Values joined by “and” are separate entries in the source; they are usually repeats but may differ in a detail not shown here. Equal entries are not always repeated.

B1: Glyceraldehyde-3-phosphate dehydrogenase, P00362 (parent)
chain: MAVKVGINGFGRIGRNVFRAALKNPDIEVVAVNDLTDANTLAHLLKYDSVHGRLDAEVSVNGNNLVVNGKEIIVKAERDPENLAWGEIGVDIVVESTGRFTKREDAAKHLEAGAKKVIISAPAKNEDITIVMGVNQDKYDPKAHHVISNASCTTNCLAPFAKVLHEQFGIVRGMMTTVHSYTNDQRILDLPHKDLRRARAAAESIIPTTTGAAKAVALVLPELKGKLNGMAMRVPTPNVSVVDLVAELEKEVTVEEVNAALKAAAEGELKGILAYSEEPLVSRDYNGSTVSSTIDALSTMVIDGKMVKVVSWYDNETGYSHRVVDLAAYIASKGL

Variants of: B1
Conditions: Geobacillus stearothermophilus, pH 7.5, Thermal, DSC, KH2PO4/KOH 100 mM, reversible: no, structure 1GD1, whole UniProt chain shown

Variant: Y47G S49G
- Tm (transition: 3): 70.2 °C and 71.2 °C
- unfolding enthalpy (calorimetric) (transition: 3): 127 kcal/mol

Variant: Y285V
- unfolding enthalpy (calorimetric): 182 kcal/mol and 397 kcal/mol and 178 kcal/mol

Variant: W312F
- unfolding enthalpy (calorimetric): 371 kcal/mol and 525 kcal/mol

Variant: N315T
- Tm: 62.3 °C
- unfolding enthalpy (calorimetric): 138 kcal/mol
- Tm (transition: 3): 65.5 °C

Variant: Y47G R53G
- unfolding enthalpy (calorimetric) (transition: 3): 214 kcal/mol and 127 kcal/mol and 180 kcal/mol

Variant: T36Q T40S L44Q
- Tm: 64.8 °C and 66.8 °C
- unfolding enthalpy (calorimetric): 215 kcal/mol and 176 kcal/mol
- unfolding enthalpy (calorimetric) (transition: 3): 215 kcal/mol and 127 kcal/mol

Variant: D284G
- unfolding enthalpy (calorimetric): 140 kcal/mol and 148 kcal/mol and 119 kcal/mol
